Results taken from the RNAGym collection of RNA variant scans (doi:10.1073/pnas.2313332121).

B1: TPR t1 (parent)
chain: GACCAAUCUGCCCUCAGAGCUCGAGAACAUCUUCGGAUGCAGAGGAGGCAGGCUUCGGUGGCGCGAUAGCGCCAACGUCCUCAACCUCCAAUGCAUCCCACCACAUGAUGAUGCCUGAAGAGCCUUGGUUUUUUG

Variants of: B1
Test: polymerase ribozyme fitness, log enrichment relative to wild type (log ratio); higher = more active; in vitro selection for triplet polymerase activity
Summary of the method: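 For each subunit of a heterodimeric triplet polymerase ribozyme, a mutant library was built by PCR and transcribed, then taken through a single in vitro selection round in triplicate. Selection involved annealing to a biotinylated primer, the partner subunit and triplets, incubation frozen at −7 °C, gel excision of extended constructs, capture on streptavidin beads and RT-PCR. Genotypes were retained after Illumina sequencing of inputs and outputs only with ≥10 input reads and ≥1 read in each output. Fitness is defined as the logarithm of a genotype's enrichment relative to wild-type enrichment, using inverse-variance-weighted averages across replicates, with the logarithm taken to base 2.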

Variant | polymerase ribozyme fitness (log ratio)
GACCAAUCUGCCCUCAGAGCUCGAGAACAUCUUCGGAUGCACAGGCGGCAGGCUUCGGUGGUGCGAUAGCGCCAACGUCCUCAACCUCCAAUGCGGCCCACCACAUGAUGAUGCCUGAAGAGCCUUGGUUUUUUG [G42C A46C C62U A95G U96G] | -4
GACCAAUCUGCCCUCAGAGCUCGAGAACAUCUUCGGAUGCACAGGUGGCAGGCUUCGGUGGCGCGAUAGCGCCAACGUCCUCAACCUCCAAUGCAUCCCACCACAUGAUGAUGCCUGAAGAGCCUUGGUUUUUUG [G42C A46U] | -2.24
GACCAAUCUGCCCUCAGAGCUCGAGAACAUCUUCGGAUGCACAGGAGGCAGGCUUCGGUGGCGCGAUAGCGCCAACGUCCUCAACCUCCAAUGCAUCCCACCACAUGAUGAUGCCUGAAAAGCCUUGGUUUUUUG [G42C G120A] | -1.29
GACCAAUCUGCCCUCAGAGCUCGAGAACAUCUUCGGAUGCACAGGAGGCAGGCUUCGGUGACGCGAUAGCGCCAACGUCCUUAACCUCCAAUGCAUCCCACCACAUGAUGAUGCCAGAAGAGCCUUGGUUUUUUG [G42C G61A C82U U116A] | -4.34
GACCAAUCUGCCCUCAGAGCUCGAGAACAUCUUCGGAUGCAUAGGAGGCAGGCUUCGGUGGCGCGAUAGCGCCAACGUCCUCAACCUCCAAUGCAUCCCACCACAUGAUGAUGCCUGAAGAGCCUUGGUUUUUUG [G42U] | -1.31
GACCAAUCUGCCCUCAGAGCUCGAGAACAUCUUCGGAUGCAUAGGAGGAAGGCUUCGGUGGCGCGAUAGCGCCAACAUCCUCAACCUCCAAUGCAUCCCACCACAUGAUGAUGCCUGAAGAGGCUUGGUUUUUUU [G42U C49A G77A C123G G135U] | -1.82
GACCAAUCUGCCCUCAGAGCUCGAGAACAUCUUCGGAUGCACAUGAGGCAGGCUUCGGUGGCGGGAUAGCGCCAACGUCCUCAACCUCCAAUGCAUCCCACCACAUGAUGAUUCCUGAAGAGCCUUGGUUUUUUG [G42C G44U C64G G113U] | -5.99
GACCAAUCUGCCCUCAGAGCUCGAGAACAUCUUCGGAUGCAUAGGAGGCAGGCUUGGGUGGCGCGAUAGCGCUAACGUCCUCAACCUCCAAUGCAUCCCACCACAUGAUAAUGCCUGAAGAGCCUUGGUUUUUUG [G42U C56G C73U G110A] | -4.56
GACCAAUCUGCCCUCAGAGCUCGAGAACAUCUUCGGAUGCAUAGGAGGCAGGCUUCGGUGGCGCGAUAGCGCCCACGUCCUCAACCUCCAAUGCAUCCCACCACAUGAUGAUGCCUUAAGAGCCUUGGUUUUUUG [G42U A74C G117U] | -4.16
GACCAAUCUGCCCUCAGAGCUCGAGAACAUCUUCGGAUGCACACGAGGCAGGCUUCGGUGGCGCGAUAGCGCCAACGUCCCCAACCUCCAAUGCAUCCCACCACAUGAUGAUGCCUGAAAAGCCUUGGUUUUUUG [G42C G44C U81C G120A] | -2.45
GACCAAUCUGCCCUCAGAGCUCGAGAACAUCUUCGGAUGCAUAGGAGGCAGGCUUCGGUGGCGCGUUAGCGCCAACGUCCUCAACCUCCAAUGCAUCCCACCACAUGAUGAUGCCUGAAGAGCCUUGGUUUUUUG [G42U A66U] | -2.91
GACCAAUCUGCCCUCAGAGCUCGAGAACAUCUUCGGAUGCACAGGAGGCAGGCUUCGGUGGCGCGAUAGCGCCAACGUCCUCAACCUCCAGUGCAUCCCACCACAUGAUGAAGCCUGAAGAGCCUUGGUUUUUUG [G42C A91G U112A] | -0.613
GACCAAUCUGCCCUCAGAGCUCGAGAACAUCUUCGGAUGCACAGGAGGCAGGCUUCGGUGGCACGAUAGCGCCAACGUCCUCAACCUCCAAUGCAUCCCACCACAUGAUGAUGCCUGAAGAGCCUUGGUUUUUUG [G42C G63A] | -3.47
GACCAAUCUGCCCUCAGAGCUCGAGAACAUCUUCGGAUGCACAGGAGGCAGGCUUCGGUGGCGAGAUAGCGCCAACGUCCUCAACCUCCAAUGCAUCCCACCACAUGAUGAUGCCUGAAGAGCCUUGGUUUUUUG [G42C C64A] | -7.59
GACCAAUCUGCCCUCAGAGCUCGAGAACAUCUUCGGAUGCACAGGAGGCAGGCUUCAGUGGCGCGAUAGCGCCAACGUCCUCAACCUCCAAUGCAUCCCACCACAUGAUGAUGCCUGAAGAGCCUUGGUUUUUUG [G42C G57A] | -3.88
GACCAAUCUGCCCUCAGAGCUCGAGAACAUCUUCGGAUGCAUAGGAGGCAGGCUUAGGUGGCGCGAUAGCGCCAACGUCCUCAACCUCCAAUGCAUCCCACCACAUGAUGAUGCCUGAAGAGCCUUGGUUUUUUG [G42U C56A] | -3.39
GACCAAUCUGCCCUCAGAGCUCGAGAACAUCUUCGGAUGCACAGGAGGCAGGCUUCGGUGGCGCGAUAGCGCCAACGUCCUCAACCUCCAAUGCAUCCCACCACAUGAUGAUGCCUCAAGAGCCUUGGUUUUUUG [G42C G117C] | -4.02
GACCAAUCUGCCCUCAGAGCUCGAGAACAUCUUCGGAUGCACAGGAGGCAGGCUUUGGUGGCGCGAUAUCGCCAACGUCCUCAACCUCCAAUACAUCCCACCACAUGAUGAUGCCUGAACAGCCUUGGUUGUUUG [G42C C56U G69U G93A G120C U131G] | -3.67
GACCAAUCUGCCCUCAGAGCUCGAGAACAUCUUCGGAUGCAUAGGAGGCAGGUUUCGGUUGCGCGAUAGCGCCAACGUCCUCAACCUCCAAUGCAUCCCACCACAUGAUUAUGCCUGAAGAGCCUUGGUUUUUUG [G42U C53U G60U G110U] | -3.64
GACCAAUCUGCCCUCAGAGCUCGAGAACAUCUUCGGAUGCACAGGAGGCAGGCUUCGGUGGCGCGAUAGAGCCAACGUCCUCAACCUCCAAUGCAUCCCACCACAUGAUGAUGCCUGAAGAGCCUUGGUUUUUUG [G42C C70A] | -4.99
GACCAAUCUGCCCUCAGAGCUCGAGAACAUCUUCGGAUGCACCGGAGGCAGGCUUCGGUGGCGCGAUAGCGCCAACGUCCUCAACCUCCAAUGCAUCCCACCACAUGAUGAUGCAUGAAGAGCCUUGGUUUUUUG [G42C A43C C115A] | -1.55
